Reference: publication doi:10.1101/557116 (bioRxiv, 2019)
Residue numbers refer to the chain shown, from its start. In names and notes the source's numbering stands.

B1: GST-BST2 (80-147) (domain or fragment, human, UniProt Q10589 80-147, looked up)
chain: GFQDVEAQAATCNHTVMALMASLDAEKAQGQKKVEELEGEITTLNHKLQDASAEVERLRRENQVLSVR
B2: BST2 ectodomain (residues 47 to 159) WT (domain or fragment, human, UniProt Q10589 47-159, looked up)
chain: KANSEACRDGLRAVMECRNVTHLLQQELTEAQKGFQDVEAQAATCNHTVMALMASLDAEKAQGQKKVEELEGEITTLNHKLQDASAEVERLRRENQVLSVRIADKKYYPSSQD
B3: BST2 ectodomain (residues 47 to 159) D129A (domain or fragment, human, UniProt Q10589 47-159, looked up)
chain: B2 chain with D83A
B4: BST2 ectodomain (residues 47 to 159) R136A (domain or fragment, human, UniProt Q10589 47-159, looked up)
chain: B2 chain with R90A
B5: BST2 ectodomain (residues 47 to 159) Q87H (domain or fragment, human, UniProt Q10589 47-159, looked up)
chain: B2 chain with Q41H
B6: BST2 ectodomain (residues 47 to 159) L127C (domain or fragment, human, UniProt Q10589 47-159, looked up)
chain: B2 chain with L81C
B7: BST2 ectodomain (residues 47 to 159) T90P (domain or fragment, human, UniProt Q10589 47-159, looked up)
chain: B2 chain with T44P
B8: BST2 ectodomain (residues 47 to 159) L70D (domain or fragment, human, UniProt Q10589 47-159, looked up)
chain: B2 chain with L24D

Assays:
bacILT7 24-435 = bacILT7 24-435 (human, UniProt P59901 24-435); assay: SPR
Chain of bacILT7 24-435 (P59901 24-435): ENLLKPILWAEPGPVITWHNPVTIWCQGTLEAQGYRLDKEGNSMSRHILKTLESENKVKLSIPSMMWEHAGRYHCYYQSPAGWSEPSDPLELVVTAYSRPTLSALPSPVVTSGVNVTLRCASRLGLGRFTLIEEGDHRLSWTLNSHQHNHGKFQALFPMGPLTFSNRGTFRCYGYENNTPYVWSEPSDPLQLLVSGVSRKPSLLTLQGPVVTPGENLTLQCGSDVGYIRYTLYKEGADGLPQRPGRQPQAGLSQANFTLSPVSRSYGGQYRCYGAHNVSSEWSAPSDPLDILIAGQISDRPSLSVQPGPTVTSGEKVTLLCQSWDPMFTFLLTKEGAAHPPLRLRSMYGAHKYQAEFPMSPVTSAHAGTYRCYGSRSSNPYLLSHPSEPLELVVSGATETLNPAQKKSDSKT

bacILT7 24-223 = bacILT7 24-223 (human, UniProt P59901 24-223, fluorescent label (Protein Labeling Kit RED-NHS)); assay: MST
Chain of bacILT7 24-223 (P59901 24-223): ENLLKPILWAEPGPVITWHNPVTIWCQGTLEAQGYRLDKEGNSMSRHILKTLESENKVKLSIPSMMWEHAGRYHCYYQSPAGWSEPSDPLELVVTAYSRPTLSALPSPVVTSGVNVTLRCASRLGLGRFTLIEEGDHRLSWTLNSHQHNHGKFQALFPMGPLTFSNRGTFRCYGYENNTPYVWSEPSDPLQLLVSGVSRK

cross-linking = biological target: the molecule itself; assay: cross-linking

Binder	Kd (bacILT7 24-223) [µM]	other results
B1	–	Kd (bacILT7 24-435): 2.62 µM; koff (bacILT7 24-435): 0.00238 s⁻¹; kon (bacILT7 24-435): 908 M⁻¹ s⁻¹
B2	2.45 ± 0.3	–
B3	–	stoichiometry N (cross-linking): 2
B4	–	stoichiometry N (cross-linking): 2
B5	5.06 ± 1.1	–
B6	6.45 ± 1.2	–
B7	4.49 ± 0.9	–
B8	5.55 ± 1	–
